Earlier results, collected in publication PMC7179994.
Where two headings read alike, the source gives them in different places.

Columns and labels:
[1] = molecular target: VE-cadherin (Homo sapiens) (UniProt P33151)
[2] = molecular target: VE-cadherin (Homo sapiens) (UniProt P33151); remark: listed apart in the source
[3] = molecular target: VLDL receptor (Homo sapiens) (UniProt P98155)

VE-cadherin (Homo sapiens), sequence (P33151 48-599): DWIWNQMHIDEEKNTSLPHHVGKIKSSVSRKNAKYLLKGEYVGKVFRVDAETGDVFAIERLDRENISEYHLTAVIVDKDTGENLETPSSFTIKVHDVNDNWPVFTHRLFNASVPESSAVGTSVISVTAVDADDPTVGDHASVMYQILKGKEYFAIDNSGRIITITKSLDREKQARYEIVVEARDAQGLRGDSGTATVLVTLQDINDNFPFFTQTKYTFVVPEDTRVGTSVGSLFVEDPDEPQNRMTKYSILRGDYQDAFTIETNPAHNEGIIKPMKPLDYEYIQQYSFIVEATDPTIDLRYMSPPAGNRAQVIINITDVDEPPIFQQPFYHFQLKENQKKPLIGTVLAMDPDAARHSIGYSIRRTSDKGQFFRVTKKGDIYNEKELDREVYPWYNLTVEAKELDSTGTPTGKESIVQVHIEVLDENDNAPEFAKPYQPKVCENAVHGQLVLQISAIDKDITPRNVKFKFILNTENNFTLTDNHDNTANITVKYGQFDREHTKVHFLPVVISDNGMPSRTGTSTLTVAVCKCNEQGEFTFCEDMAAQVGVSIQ
(β15–44)2 15-44, sequence (P02675 15-44): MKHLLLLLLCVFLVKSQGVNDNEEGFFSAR
fibrin β15–42 15-42, sequence (P02675 15-42): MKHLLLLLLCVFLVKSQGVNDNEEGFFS

In the case of (β15–44)2 15-44 (from UniProt P02675), the Kd [1] is listed as 715 nM.
In the case of “fibrin β15–42 15-42 (from UniProt P02675)”, the Kd [2] is listed as 267000 nM.
In the case of fibrin (from UniProt P02671), the Kd [3] is given as 9.2 nM.
